Paper PMC9232852 (2022)

T1: BTN2A1 ID271 (Homo sapiens, UniProt Q7KYR7)
T1 chain: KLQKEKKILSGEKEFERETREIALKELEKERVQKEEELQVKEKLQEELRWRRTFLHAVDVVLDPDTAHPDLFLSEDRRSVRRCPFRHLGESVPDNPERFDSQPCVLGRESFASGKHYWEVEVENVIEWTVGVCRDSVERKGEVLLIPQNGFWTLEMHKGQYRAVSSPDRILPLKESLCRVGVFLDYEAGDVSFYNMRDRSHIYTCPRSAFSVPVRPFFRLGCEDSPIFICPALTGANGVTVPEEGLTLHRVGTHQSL

T2: BTN2A1 ID309 (Homo sapiens, UniProt Q7KYR7)
T2 chain: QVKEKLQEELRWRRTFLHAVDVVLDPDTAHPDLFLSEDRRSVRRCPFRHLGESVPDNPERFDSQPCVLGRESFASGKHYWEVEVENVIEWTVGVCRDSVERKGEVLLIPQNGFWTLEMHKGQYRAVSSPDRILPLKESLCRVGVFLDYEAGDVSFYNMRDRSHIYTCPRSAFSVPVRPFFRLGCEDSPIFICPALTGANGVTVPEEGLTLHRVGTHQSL


Experiments:
BTN2A1 ID271 = target: T1, BTN2A1 ID271; experiment: ITC
BTN2A1 ID309 = target: T2, BTN2A1 ID309; experiment: ITC

Kd (BTN2A1 ID271) [nM]	Kd (BTN2A1 ID309) [nM]	Binder
463		BTN3A1 B30.2 (protein, HMBPP) not shown
886	674	BTN3A1 BFI (full intracellular domain) (protein, HMBPP) not shown
